No end group written: not given here.
Assays:
nucleic acid = conditions: physiological nucleic acid ligand; cited from earlier work
1200 bp DNA fragment = assay: Agarose gel shift assay of DNA binding; conditions: for peptide concentration at which no free DNA can be detected: 200 ng DNA in 20 μl; for peptide molecules for one molecule of DNA at full binding / peptides per base pair at full binding: at 20 μM peptide
Description: FIG. 6 depicts agarose gel electrophoresis of complexes of 2 and a 1200 bp DNA fragment. Each sample was prepared in a volume of 20 μl Well 1: 200 ng of 1200 bp DNA fragment; Well 2—10: 200 ng of 1200 bp DNA fragment+2 at a concentration of 2.5-5-7.5-10-15-20-25-35-45 μM.
The ability of compounds 1 and 2 to bind to nucleic acids was assayed by agarose gel shift assays where DNA was mixed with peptides 1 and 2 in different ratio. (FIG. 6). According to these studies at a peptide concentration of 20 μM, no free DNA can be detected in the sample. This corresponds to a ratio of approximately 1600 peptide molecules for one molecule of DNA, or 1.3 peptides per base pair.

[1] = system: plasmid pBR322 DNA template; assay: TEM of peptide-plasmid DNA complexes; format: physicochemical; conditions: peptide 80 μM, plasmid 200 ng in 20 μl 25 mM Tris buffer pH 7.4
Description: A Complex between 3 (80 μM) and plasmid pbr322 (200 ng) in 20 μl of 25 mM Tris buffer (pH 7.4, 25 mM) B Complex between 1 (80 μM) and plasmid pbr322 (200 ng) in 20 μl of 25 mM Tris buffer (pH 7.4, 25 mM) C Complex between 2 (80 μM) and plasmid pbr322 (200 ng) in 20 μl of 25 mM Tris buffer (pH 7.4, 25 mM).
(§1) Complexes between nucleic acid templates and molecules 1, 2 and 3 were prepared under conditions where no more free DNA could be detected by gel electrophoresis and analyzed by transmission electron microscopy (TEM).

[2] = system: double strand DNA fragments; assay: TEM of peptide-linear double strand DNA fragment complexes; format: physicochemical; conditions: for morphology of complexes with short DNA fragments: short ds DNA fragments (150, 300 bp); for morphology of complexes with DNA fragments above 300 bp: template length above 300 bp (600, 1200 bp)
Description: (§2) A Complex between 1 (80 μM) and ds 150 bp DNA fragment (200 ng) in 20 μl of 25 mM Tris buffer (pH 7.4, 25 mM) B Complex between 2 (80 μM) and ds 150 bp fragment (200 ng) in 20 μl of 25 mM Tris buffer (pH 7.4, 25 mM) C Complex between 1 (80 μM) and ds 300 bp DNA fragment (200 ng) in 20 μl of 25 mM Tris buffer (pH 7.4, 25 mM) D Complex between 2 (80 μM) and ds 300 bp fragment (200 ng) in 20 μl of 25 mM Tris buffer (pH 7.4, 25 mM).
as §2, with “600” for “150”, “1200” for “300”
as §1
The toroid proportion is insignificant as they are difficult to observe. Furthermore, the length of the complexes was homogenous, and around 706 nm in average. The calculated length of the PBR322 plasmid in a supercoiled conformation is 737 nm, very close to the observed dimensions. A slight shortening of the complexes can be explained by the contraction of DNA in the presence of multivalent counterions. Complexes of short double strand DNA fragments (25-1200 bp) have also been prepared and observed by TEM. (FIG. 8). The expected control of the dimensions of the complexes by template effect clearly obeys different regimes depending both of the length of the template and design of the artificial capsomers.

[3] = Circular dichroism of the peptide (alpha-helical content); format: physicochemical
Description: FIG. 3 depicts circular dichroism of peptide 1 at 21 μM at pH 8 in Tris buffer.
The self-assembly of molecules 1 and 2 into mushroom-shaped nanostructures by coiled-coil formation is an aspect of the disclosure. The self-assembly of the block copolymer 1 was characterized under physiological conditions to probe its propensity to generate […] coiled-coils aggregates.

[4] = Sedimentation equilibrium analytical ultracentrifugation; format: physicochemical; design: partial specific volume: unit not given here
Description: The coiled-coil formation was then investigated further by analytical ultracentrifugation, which gives access to the absolute molecular weight of the aggregates in solution and subsequently their aggregation number. Equilibrium experiments were conducted at 23° C. and in 50 mM phosphate buffer containing 150 mM NaCl, pH 7.4. Three loading concentrations (18, 30 and 42 μM) were scanned at 230 nm, and sedimented to equilibrium at 20 krpm, 26.6 krpm, 33.3 krpm, and at 39.9 krpm, resulting in 12 scans which were globally fit to multiple models as described previously [Johnson et al., Biophys. J. 36(3): 575-588 (1981); Demeler et al., UltraScan A Comprehensive Data Analysis Software Package for Analytical Ultracentrifugation Experiments. Analytical Ultracentrifugation—Techniques and Methods. Royal Society of Chemistry: 2005]. The most appropriate model was chosen based on visual inspection of the residual run patterns and based on the best statistics. Statistics were evaluated with the Monte Carlo analysis implemented in UltraScan [Demeler et al., Colloid & Polymer Science 286(2): 129-137 (2008)].
A good fit was obtained when all scans were fitted globally to a single ideal species model (RMSD=7.3631e-03, see FIG. 4). A fixed molecular weight distribution model with 100 molecular weight slots between 10,000 and 50,000 Dalton provided slightly better statistics (RMSD=4.6435e-03) because of the additional degrees of freedom.
This molecular weight was consistent with a hexameric assembly of 1. […] Since both sedimentation velocity and sedimentation equilibrium experiments only measure the buoyant molecular weight of the sample, errors can be introduced when the partial specific volume is in error. The partial specific volume of 1 was not determined in an independent measurement, but it is reasonable to assume that due to the presence of the PEG2000 chain, the partial specific volume is actually higher than was estimated. The partial specific volume was therefore also fitted using the single species ideal equilibrium model, holding the molecular weight fixed at the theoretical estimate of 39,921 Daltons and determined a partial specific volume of […], which is reasonable considering the presence of the PEG2000 chain.

[5] = Sedimentation velocity analytical ultracentrifugation; format: physicochemical
Description: Sedimentation velocity experiments were conducted in the same buffer as the equilibrium experiments. Velocity experiments were performed at 50 krpm and 23° C., scans were taken at 230 nm in intensity mode. The data were analyzed with the 2-dimensional spectrum analysis (2DSA) [Brookes et al., European Biophysics Journal 39(3): 405-414 (2010)] and time invariant noise was subtracted. 2DSA results were further refined with the genetic algorithm analysis (GA) [Brookes et al., Proceedings of the 9th annual conference on Genetic and evolutionary computation 361-368 (2007)] coupled with Monte Carlo (MC) analysis [Demeler et al., UltraScan A Comprehensive Data Analysis Software Package for Analytical Ultracentrifugation Experiments. Analytical Ultracentrifugation—Techniques and Methods. Royal Society of Chemistry: 2005]. Sedimentation coefficient distributions were calculated with the van Holde-Weischet analysis [Demeler et al., Anal. Biochem. 335(2): 279-288 (2004)].
Weight-average sedimentation coefficients determined with the 2DSA-MC and the GA-MC analysis were both 2.26 s.

[6] = fixed molecular weight distribution model, Monte Carlo analysis

Molecule | binding constant to nucleic acid (nucleic acid) | peptide concentration at which no free DNA can be detected (1200 bp DNA fragment) [µM] | peptide molecules for one molecule of DNA at full binding (1200 bp DNA fragment) | peptides per base pair at full binding (1200 bp DNA fragment) | average length of complexes with plasmid pBR322 [1] | morphology of complexes with plasmid pBR322 [1] | morphology of complexes with short DNA fragments [2] | morphology of complexes with DNA fragments above 300 bp [2] | alpha-helical content ([3]; before addition of DNA, 21 μM, pH 8, Tris buffer) [%] | alpha-helical content ([3]; upon addition of DNA) [%] | molecular weight of the species in solution, single ideal species fit ([4]; 23° C., 50 mM phosphate buffer, 150 mM NaCl, pH 7.4, 18, 30 and 42 μM) [kDa] | oligomeric state in solution ([4]; concentrations between 18 and 42 μM) | partial specific volume ([4]; fitted with single species ideal equilibrium model, molecular weight fixed at 39,921 Daltons) | Z-average molecular weight [4, 6] [kDa] | number-average molecular weight [4, 6] [kDa] | weight-average molecular weight [4, 6] [kDa] | weight-average sedimentation coefficient ([5]; 2DSA-MC and GA-MC analysis) [s] | frictional ratio ([5]; GA-MC analysis) | molecular weight of single species (94% of the signal) ([5]; GA-MC analysis) [kDa] | weight-average sedimentation coefficient ([5]; van Holde-Weischet analysis, 50 krpm, 23° C.) [s]
NCCCNCCCCNCCCN [spermine] | micromolar range | – | – | – | – | – | – | – | – | – | – | – | – | – | – | – | – | – | – | –
2: Coiled-coil peptide (SEQ ID NO: 1) with spermine unit and mPEG5000-maleimide conjugated to an N-terminal cysteine residue ({C(mPEG5000-maleimide)}-REGVAKALRAVANALHYNASALEEVADALQKVKM; also: spermine unit, site not given here) [compound 2] | – | 20 | approximately 1600 | 1.3 | around 706 nm | only filamentous complexes were observed | rodlike morphology and having predominantly the length of the DNA template | homogenous rods having predominantly a length corresponding to the DNA template folded in two | – | – | – | – | – | – | – | – | – | – | – | –
peptide 1: Coiled-coil peptide (SEQ ID NO: 1) with C-terminal lysine-linked spermine DNA binding unit and PEG2000 carboxylic acid coupled to N-terminus ({PEG2000 carboxylic acid}-REGVAKALRAVANALHYNASALEEVADALQKVKM; not fully specified (C-terminus)) | – | 20 | approximately 1600 | 1.3 | – | mixture of rods, branched and toroidal complexes | rodlike morphology and having predominantly the length of the DNA template | mixture of the expected filamentous complexes of different length and toroidal complexes | 36 | 53 | 33.38 | hexamer or heptameric oligomer | 0.809 | 36.28 | 32.34 | 34.67 | 2.26 | 1.370 | 33.74 | 2.28

— patent US9650421B2, “Self-assembled nanostructures” (NORTHWESTERN UNIVERSITY, priority 2011, dated 2017)
